Article PMC3167627

Biological target: Mcm2EE-7 S164E;S170E (Saccharomyces cerevisiae) (UniProt P29469+P24279+P30665+P29496+P53091+P38132)
Experiment: gel filtration

Work on M13mp19 circular ssDNA yielded a binding signal (fold bound vs Mcm2WT-7 at 0.5 nM ssDNA) of over 3.
